Results on 5 sequences are retold here after the supplement of paper PMC5998384.

The test system of data set [1] is HeLa Kyoto. The data set can be described thus: melting temperature (median over replicates), in situ; higher = more thermally stable.
Data set [2] deals with HeLa Kyoto. Kind of data set: solubility in G1/S (NP-40 vs SDS abundance) (log2 ratio); higher = more soluble. As to conditions: cell cycle stage: G1/S.
Data set [3] has as its system HeLa Kyoto. The data set can be described thus: solubility change mitosis vs G1/S (difference of NP-40 vs SDS log2 ratios) (log2 ratio difference); higher = more soluble in mitosis.
Data set [4] deals with HeLa Kyoto. The data set can be described thus: thermal stability score vs G1/S (z-score of summed log2 fold changes over temperatures); higher = more thermally stable than in G1/S.
Where [5] appears, read: cell cycle stage: early G1 (4.5 h after nocodazole release).
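Throughout, for melting temperature (median over replicates), in situ: HeLa Kyoto cells synchronized by double thymidine or nocodazole block, proteins quantified by TMT10plex mass spectrometry, three independent biological replicates.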
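Throughout, for solubility change mitosis vs G1/S (difference of NP-40 vs SDS log2 ratios): synchronized HeLa Kyoto cells (double thymidine block for G1/S, nocodazole release for mitosis), protein amounts in NP-40 versus SDS lysates quantified by mass spectrometry, three biological replicates.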
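Throughout, for solubility in G1/S (NP-40 vs SDS abundance): HeLa Kyoto cells arrested at G1/S by double thymidine block, proteins quantified by TMT10plex mass spectrometry in mild NP-40 versus SDS extracts, three biological replicates.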
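Throughout, for thermal stability score vs G1/S (z-score of summed log2 fold changes over temperatures): synchronized HeLa Kyoto cells, proteins quantified by TMT10plex mass spectrometry, three biological replicates, mitosis taken 0.5 h after nocodazole release, G1/S directly after double thymidine block.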

“MVWDRQTKMEYEWKPDEQGLQQILQLLKESQSPDTTIQRTVQQKLEQLNQYPDFNNYLIFVLTKLKSEDEPTRSLSGLILKNNVKAHFQNFPNGVTDFIKSECLNNIGDSSPLIRATVGILITTIASKGELQNWPDLLPKLCSLLDSEDYNTCEGAFGALQKICEDSAEILDSDVLDRPLNIMIPKFLQFFKHSSPKIRSHAVACVNQFIISRTQALMLHIDSFIENLFALAGDEEPEVRKNVCRALVMLLEVRMDRLLPHMHNIVEYMLQRTQDQDENVALEACEFWLTLAEQPICKDVLVRHLPKLIPVLVNGMKYSDIDIILLKGDVEEDETIPDSEQDIRPRFHRSRTVAQQHDEDGIEEEDDDDDEIDDDDTISDWNLRKCSAAALDVLANVYRDELLPHILPLLKELLFHHEWVVKESGILVLGAIAEGCMQGMIPYLPELIPHLIQCLSDKKALVRSITCWTLSRYAHWVVSQPPDTYLKPLMTELLKRILDSNKRVQEAACSAFATLEEEACTELVPYLAYILDTLVFAFSKYQHKNLLILYDAIGTLADSVGHHLNKPEYIQMLMPPLIQKWNMLKDEDKDLFPLLECLSSVATALQSGFLPYCEPVYQRCVNLVQKTLAQAMLNNAQPDQYEAPDKDFMIVALDLLSGLAEGLGGNIEQLVARSNILTLMYQCMQDKMPEVRQSSFALLGDLTKACFQHVKPCIADFMPILGTNLNPEFISVCNNATWAIGEISIQMGIEMQPYIPMVLHQLVEIINRPNTPKTLLENTAITIGRLGYVCPQEVAPMLQQFIRPWCTSLRNIRDNEEKDSAFRGICTMISVNPSGVIQDFIFFCDAVASWINPKDDLRDMFCKILHGFKNQVGDENWRRFSDQFPLPLKERLAAFYGV [TNPO1]”: the melting temperature with HeLa Kyoto [1] (cell cycle stage: G1/S) turned out to be 50.3 °C; in the data set with HeLa Kyoto [1] (cell cycle stage: mitosis), 49.7 °C. Also, in the data set on HeLa Kyoto [2], the “solubility in G1/S (log2)” value is -0.146. In the data set with HeLa Kyoto [3], the “solubility change mitosis (log2)” value was -0.175. Further, the thermal stability score with HeLa Kyoto [4] (setting [5]) was 1.15; in the data set with HeLa Kyoto [4] (cell cycle stage: mitosis), -1.3.
For “MVWKVAVFLSVALGIGAVPIDDPEDGGKHWVVIVAGSNGWYNYRHQADACHAYQIIHRNGIPDEQIVVMMYDDIAYSEDNPTPGIVINRPNGTDVYQGVPKDYTGEDVTPQNFLAVLRGDAEAVKGIGSGKVLKSGPQDHVFIYFTDHGSTGILVFPNEDLHVKDLNETIHYMYKHKMYRKMVFYIEACESGSMMNHLPDNINVYATTAANPRESSYACYYDEKRSTYLGDWYSVNWMEDSDVEDLTKETLHKQYHLVKSHTNTSHVMQYGNKTISTMKVMQFQGMKRKASSPVPLPPVTHLDLTPSPDVPLTIMKRKLMNTNDLEESRQLTEEIQRHLDARHLIEKSVRKIVSLLAASEAEVEQLLSERAPLTGHSCYPEALLHFRTHCFNWHSPTYEYALRHLYVLVNLCEKPYPLHRIKLSMDHVCLGHY [LGMN]”, the melting temperature in the data set on HeLa Kyoto [1] (cell cycle stage: G1/S) was 53.8 °C; in the data set on HeLa Kyoto [1] (cell cycle stage: mitosis), 54.2 °C. For the same sequence, the “solubility in G1/S (log2)” value with HeLa Kyoto [2] is 0.416. Further, in the data set with HeLa Kyoto [3], the “solubility change mitosis (log2)” value is -0.0973. In addition, the thermal stability score turned out to be 5.08 in the data set with HeLa Kyoto [4] (setting [5]) and 5.7 in the data set with HeLa Kyoto [4] (cell cycle stage: mitosis).
As for “MWIQVRTIDGSKTCTIEDVSRKATIEELRERVWALFDVRPECQRLFYRGKQLENGYTLFDYDVGLNDIIQLLVRPDPDHLPGTSTQIEAKPCSNSPPKVKKAPRVGPSNQPSTSARARLIDPGFGIYKVNELVDARDVGLGAWFEAHIHSVTRASDGQSRGKTPLKNGSSCKRTNGNIKHKSKENTNKLDSVPSTSNSDCVAADEDVIYHIQYDEYPESGTLEMNVKDLRPRARTILKWNELNVGDVVMVNYNVESPGQRGFWFDAEITTLKTISRTKKELRVKIFLGGSEGTLNDCKIISVDEIFKIERPGAHPLSFADGKFLRRNDPECDLCGGDPEKKCHSCSCRVCGGKHEPNMQLLCDECNVAYHIYCLNPPLDKVPEEEYWYCPSCKTDSSEVVKAGERLKMSKKKAKMPSASTESRRDWGRGMACVGRTRECTIVPSNHYGPIPGIPVGSTWRFRVQVSEAGVHRPHVGGIHGRSNDGAYSLVLAGGFADEVDRGDEFTYTGSGGKNLAGNKRIGAPSADQTLTNMNRALALNCDAPLDDKIGAESRNWRAGKPVRVIRSFKGRKISKYAPEEGNRYDGIYKVVKYWPEISSSHGFLVWRYLLRRDDVEPAPWTSEGIERSRRLCLRLQYPAGYPSDKEGKKPKGQSKKQPSGTTKRPISDDDCPSASKVYKASDSAEAIEAFQLTPQQQHLIREDCQNQKLWDEVLSHLVEGPNFLKKLEQSFMCVCCQELVYQPVTTECFHNVCKDCLQRSFKAQVFSCPACRHDLGQNYIMIPNEILQTLLDLFFPGYSKGR [UHRF2]”, the figures for the melting temperature with HeLa Kyoto [1] (cell cycle stage: G1/S) and with HeLa Kyoto [1] (cell cycle stage: mitosis) were 44.3 °C and 46.9 °C, respectively. Besides, the “solubility in G1/S (log2)” value with HeLa Kyoto [2] is -0.401. The “solubility change mitosis (log2)” value with HeLa Kyoto [3] was found to be 0.175. The results for the thermal stability score in the data set on HeLa Kyoto [4] (setting [5]) and in the data set with HeLa Kyoto [4] (cell cycle stage: mitosis) were 2.81 and 4.34, respectively.
Take “MWKLLPAAGPAGGEPYRLLTGVEYVVGRKNCAILIENDQSISRNHAVLTANFSVTNLSQTDEIPVLTLKDNSKYGTFVNEEKMQNGFSRTLKSGDGITFGVFGSKFRIEYEPLVACSSCLDVSGKTALNQAILQLGGFTVNNWTEECTHLVMVSVKVTIKTICALICGRPIVKPEYFTEFLKAVESKKQPPQIESFYPPLDEPSIGSKNVDLSGRQERKQIFKGKTFIFLNAKQHKKLSSAVVFGGGEARLITEENEEEHNFFLAPGTCVVDTGITNSQTLIPDCQKKWIQSIMDMLQRQGLRPIPEAEIGLAVIFMTTKNYCDPQGHPSTGLKTTTPGPSLSQGVSVDEKLMPSAPVNTTTYVADTESEQADTWDLSERPKEIKVSKMEQKFRMLSQDAPTVKESCKTSSNNNSMVSNTLAKMRIPNYQLSPTKLPSINKSKDRASQQQQTNSIRNYFQPSTKKRERDEENQEMSSCKSARIETSCSLLEQTQPATPSLWKNKEQHLSENEPVDTNSDNNLFTDTDLKSIVKNSASKSHAAEKLRSNKKREMDDVAIEDEVLEQLFKDTKPELEIDVKVQKQEEDVNVRKRPRMDIETNDTFSDEAVPESSKISQENEIGKKRELKEDSLWSAKEISNNDKLQDDSEMLPKKLLLTEFRSLVIKNSTSRNPSGINDDYGQLKNFKKFKKVTYPGAGKLPHIIGGSDLIAHHARKNTELEEWLRQEMEVQNQHAKEESLADDLFRYNPYLKRRR [NBN]”: the results for the melting temperature in the data set with HeLa Kyoto [1] (cell cycle stage: G1/S) and in the data set on HeLa Kyoto [1] (cell cycle stage: mitosis) were 48.7 °C and 49.7 °C, respectively. Besides, in the data set with HeLa Kyoto [2], the “solubility in G1/S (log2)” value was -0.0211. Also, the “solubility change mitosis (log2)” value with HeLa Kyoto [3] was -0.152. Moreover, the thermal stability score turned out to be 0.727 in the data set on HeLa Kyoto [4] (setting [5]) and 1.8 in the data set with HeLa Kyoto [4] (cell cycle stage: mitosis).
Turning to “MWLQQRLKGLPGLLSSSWARRLLCLLGLLLLLLWFGGSGARRAAGGLHLLPWSRGEPGAAEPSACLEAATRAWRGLRERGEVVPLGPGVPALVANGFLALDVAANRLWVTPGEREPAVAPDFVPFVQLRPLSALAEAGEAVLLLREGLLRRVRCLQLGSPGPGPVAAGPGPASVSGLAAGSGRDCVLLQEDFLAHRGRPHVYLQRIQLNNPTERVAALQTVGPTAGPAPKAFTSTLEKVGDHQFLLYSGRSPPTPTGLVHLVVVAAKKLVNRLQVAPKTQLDETVLWVVHVSGPINPQVLKSKAAKELKALQDLARKEMLELLDMPAAELLQDHQLLWAQLFSPGVEMKKITDTHTPSGLTVNLTLYYMLSCSPAPLLSPSLSHRERDQMESTLNYEDHCFSGHATMHAENLWPGRLSSVQQILQLSDLWRLTLQKRGCKGLVKVGAPGILQGMVLSFGGLQFTENHLQFQADPDVLHNSYALHGIRYKNDHINLAVLADAEGKPYLHVSVESRGQPVKIYACKAGCLDEPVELTSAPTGHTFSVMVTQPITPLLYISTDLTHLQDLRHTLHLKAILAHDEHMAQQDPGLPFLFWFSVASLITLFHLFLFKLIYNEYCGPGAKPLFRSKEDPSV [KIAA2013]”, the melting temperature with HeLa Kyoto [1] (cell cycle stage: G1/S) was 56.9 °C; with HeLa Kyoto [1] (cell cycle stage: mitosis), 56.1 °C. For the same sequence, in the data set on HeLa Kyoto [2], the “solubility in G1/S (log2)” value was -0.156. For the same sequence, in the data set on HeLa Kyoto [3], the “solubility change mitosis (log2)” value was -0.126. Besides, the values for the thermal stability score with HeLa Kyoto [4] (setting [5]) and in the data set with HeLa Kyoto [4] (cell cycle stage: mitosis) were -3.23 and -4.42, respectively.
